We go through 50 sequences from the domain aggregation screens of Martell et al. (2025).

The series can be described thus: soluble fraction after stress (log2 fold change); higher = more stays soluble; pooled small domains, quantitative proteomics. As to conditions: stress: 50 degC. Put shortly:
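Each library was heated to 50°C as a stress step. The libraries, made up of small protein domains, were pooled and analysed at high throughput by quantitative proteomics. The reported value is the base-two logarithm of the fold change in each protein's soluble amount after stress, taken as a measure of aggregation propensity. The higher the value, the more protein stays in solution.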
For the sequence “HMKKTDFNVENYDIEELAAILNFKYVPLNQGLIRDRIKDMKQRFKNKPEYIKFFTDVEIKLVNNLNLFN”, the “soluble fraction (log2)” value was -1.24.
“HMQKVPDAFKAEQVQTLITRLGVSRAELARTLDVSLSTVNKWASGAVEPKGSALVLLKVLWMHGFKAL”: the “soluble fraction (log2)” value is -2.14.
For the sequence “HMDPFAYEVKVTDLAAGSSEIRTVYTEQGSFNIPSGMSGNLKIQVRSASMYDEVEPSDWYTIGEEDIN”, the “soluble fraction (log2)” value was -0.0779.
Consider “HMDKKTMFNEALAKLVSYATAHDNLITMEDVKSFFNGLIDDDSQYKLIYDYLSINKIEIKGFT”, for which the “soluble fraction (log2)” value stood at 0.2.
For “HMQNAMQKELIDAFQKAYPDLDITKIELVYGTYYEVEAMNSTTEFTYRYDQNSKTFILAEQDNADP”, the “soluble fraction (log2)” value was -0.202.
Turning to “HMENSYSVEDLALKAAISVDTIRYYQGLGLISPPQKNGRRAIYGNDHISRLEEIKKLAFEGFSLRQISLL”, the “soluble fraction (log2)” value is -0.224.
Turning to “HMKWGDTPTVEVPNLIGMKKKDLQTQLVDLKLDISGDGEKVIKQSPEAGAKVKEGSKIRIYFG”, the “soluble fraction (log2)” value was -0.0661.
Then “HMSSVRDNGDLELVPGDRIRHDDYGEGRVTAVTGVGSKRIAHAVFDSVGERKLLIKLSPIEKI”, with -0.0293; and “HMSNLLKNILDVLEKEGPLKARKIALLLDSTRTTITHTTINSELYKALDLEGLTKNEQNIWSYVT”, with 0.00627; and “HMNINLNVGKRLKSIRQNKELSLDEVSNLTNVSKPALAQIERGASSPTINTLWKISKGLKVPLSYFLQE”, with -0.0405.
Then “HMKGERHNKILELIQQHAIDRQEDLLRYLKEAGFQVTQATVSRDIRELHLVKVAAGGGQYRYVSAAAAS”, with -0.0903; and “HMAEPTLNERLREALSDPAKLKIAKAIKAKYPIITARDIDTFLNMHEKDIENGADPMDEFEEFFHANY”, with 0.127; and “HMEPREEFTFADLRANGLNGTAAAAGRRAALGAALGIGYGNAKQFLRRLNHYGVTRSEWEAALADLDE”, with -0.419.
Take “HMYIENIGDYLKSHDIKPSYQRIKVFEYLMQHKNHPTVDMIYKSLVDEIPTLSKTTVYNTLNLFIEKQI”: the “soluble fraction (log2)” value is -1.74.
Then “HMDQAEDVLSIPVDALMRGNQVYIKDDTVTEQQGPIPAGFKAVEVETGLISDSYVEIKSGLSEGDTVYVAE”, with 0.141; and “HMTVKNFNDLPGFKNENLAELKAMGITTISELAEALNDGGKIKEIIKNLSGVGPKTAEKWKDAIG”, with no less than 0.62.
Take “HMTAAPEVRVEGLFKGAAVLKIDGQQVMLKKGRSHSSGVTLVDANAHRAIVEIDGQRHELALHMA”: the “soluble fraction (log2)” value came to 0.0499.
Then “HMRTNVDISPKILEWVLSQVRNRTTNDVIETIQIWIKGEKPPTFNQVEKISKATGVPLGYFFLKTPPVED”, with -0.805; and “HMVDDELTARRRVNLRRIADELGGAAAVARKTQKSVQQISSMLNGTKSFGSKIARDIEPKLGLPLQSLDKE”, with 0.128.
Turning to “HMDNTSNVEKTLRFIRQRGKVSRKEVETLLGSSKFPAISALNELLAENKIVKTGSGPAVRYSVS”, the “soluble fraction (log2)” value was -0.0887.
Regarding “HMQGATVYIKSDDIGKTTNEQGSFNFDKLKKNRYTLEISFIGYETKNLQAYTDRENIVQLNRKS”, the “soluble fraction (log2)” value amounted to 0.248.
As for “HMKFTSEKDISLLELVKAKMGFVSNTKARNVIKIGQIMVSGKVIKIPSTLIKPGTEVELARRV”, the figure is -1.66.
Consider “HMGIDISAFSETALQVLRLQAAGYTAKEISEKLHITPRTVKYHASQNYRKLDAKNLVDAVQIAQALHI”, for which the “soluble fraction (log2)” value is -1.26.
As for “HMTEKMILKWKEALERMNDDFTTKDWLNVVIHEMGKSERTAYGWLSDMKRSGIIKDLGYGSWLKVLE”, the figure is -0.738; as for “HMKAFTKKELQDLVLNIFRASPTTNYNYKQLYKLIRGKDPEIKTLIIAVLLGLEKNGSILQMRPGKYKFS”, 0.593; as for “HMQVPFGFQRNPSTGTLEEKAEEQLIINQVLSLKNSGIGVSEISKRLGELSVSRIYRIINTAKKNAS”, -0.366.
Then “HMSEQLKQIAERIKELRNIAGLGEEELAAKLDIPVDTYREYESGNVDIPVSFLYKISGMFNVELTAIL”, with 0.0417.
As for “HMGEPVASSREVAKRFGKEHKHVLAAIRQILVAENSATKFFHETAFEYRGQRFPEYLMNRDGFALLAMGF”, the figure is -3.1.
As to “HMVAMGQRVVPLTHLSIDDVRRLLESTYGKDSGIEVTKPGTAAKGVIVTAPRTELDGIVALVKQA”, the “soluble fraction (log2)” value was 0.0987.
As for “HMTNQEFNEVFKLLLAAYPNTKDKESVATIYFLTIANELTKKEFAEAVVKILKTRKSGFIPQPAEILEVAK”, the figure is -0.67; as for “HMTISPYTKDDFLKGTKPFEDVYAHKADPFVHDRALEQMTIWAKSVGVNGFKKLYKAYIDSLRIKNKEI”, 0.0524; as for “HMNQEFRMPNAIKGVELSEENKQQLTQGEKVFLEGMTSAKGSLFDAYVYIDQEKKTLAFDFPEK”, 0.184.
Then “HMGFVTVTEVDTTADLKLARVYVSVLGPEEQWAKSFTALESARGFVWNWLRKHLDLRVTPQLAF”, with -0.984; and “HMQVTEVDYGTFMKMVEEKNVGEVEVGNSMIVFTDKDGKAIYKTGAMNDPNLTERLYNAGASFTKE”, with 0.0396; and “HMKKRDANSQGTRLILFYMLQRLHTEYKLQGFVTYNQRRSFREIYDAYHALGGNGFGTAMWEEVKELDLK”, with -1.43.
As to “HMGPNSVPDLRGKSLRQAMKMVNDLELKAIFEGEGIVVGQVPAPGKPVPETKILKITLSLEPY”, the “soluble fraction (log2)” value was -0.109.
Then “HMVEVPKVAGMSTAQGVSELEQKGFVVNRTESYDDTVPKGNIISQTPEGGTKVPSGSAVTIKISQGAE”, with -0.157.
For the sequence “HMFSLDMDRLVRPGFMASGNVTFSDGVTGKWALDQMGRLALETAQKGYQPSPADVQAFQRELQQQLQRQG”, the “soluble fraction (log2)” value was -0.0885.
Turning to “HMKKVSVKPILELRAAGISMRKIETLMHVSRHTISAIYKAADAYSISWDNVKDFDEDKIYEMLFPPTP”, the “soluble fraction (log2)” value is -1.94.
As for “HMGNLIIFYDAQTGSAPLLKAVKTSGATLVYEYKNLHGIAIRPSSKTSIEDAIAYFKKVNGVLSVE”, the figure is -1.84; as for “HMRLSAADLQSYLKGMDYPASRQDLIAHARGHNAPEEAVATLEQFSDRTYRSAADVSVEFGRE”, 0.25; as for “HMESIEAGTFELDNKTSIDISEDEANLLNKMFEELTETNSKDMYGVMVADEAGFNEILEFAKENL”, 0.167.
As for “HMGRRSKAMLSSALDAVPGLGEMRRKALISQFGSLKKLRGATPEEIAAVPGIGPKLAAAVHEAVSG”, the figure is 0.0505; as for “HMENLFPDYTMQDYRIVRSELSSKFKVQTVPVTTATATENKIVRQEPEAGSRITEGMTVILYYSIGPE”, -0.0582.
As for “HMQTKNYVYFNNTENWSTVNVYVWSSKDSTYMSWPGKAMESIGNNTYRFELPNGAEYAIFNNGSAQTVD”, the “soluble fraction (log2)” value is -0.137.
Then “HMNSLQLGSRGPTVSALQAKLNTMLVPSPRLVADGSFGPKTAQAVKAFQQMKRLVADGVVGPKTAAALGLS”, with -0.00877; and “HMNIIHNPSKNFIESDLNDLKEGMEIEHKKFGYGLIKSIDKTQNHQKAVVNFKLVGEKTLLLSFARLRIV”, with -2.75; and “HMTGQEGLIGAHGVALTRLSNEEGEVKVQGEIWQARSDQEVAKGASIEVVHVDGLVLTVRPQH”, with -0.0984.
Then “HMTVTTDITQYFLQENGLLNGPNARQLRQKIGETLNIGYTNGKQLLKRAQQFGLTRDQILTALKK”, with -0.481; and “HMESYTEEMLEKMSVSKLRTIARELQVDNMTREQIRFGKKTELIQNILEFTGREIENMQLYDK”, with -0.134.
